Target: T1, Flag-TGF-β1WT (UniProt P04202 30-390)
T1 construct: TGF-β1 expressed from PCMV6-TGF-β1-Flag, constructed from the Origene plasmid PCMV6-TGF-β1-Myc-Flag (MR227339); Origene MR clones are mouse ORF clones as far as I recall; the printed sites T282 and K315 fit the precursor numbering of mouse and human TGF-β1; In cells the protein may be phosphorylated (T282) and ubiquitinated (K315); also called PCMV6-TGF-β1-Flag; source: HEK293T, transfected, in …
Test: pull-down; about 1 µg His-CHIP bound to His beads mixed with 1 µg Flag-TGF-β1WT or Flag-TGF-β1T282A, 4 °C overnight, washed three times with cell lysis buffer, immunoblot
Conditions: both partners purified

T1 sequence (P04202 30-390): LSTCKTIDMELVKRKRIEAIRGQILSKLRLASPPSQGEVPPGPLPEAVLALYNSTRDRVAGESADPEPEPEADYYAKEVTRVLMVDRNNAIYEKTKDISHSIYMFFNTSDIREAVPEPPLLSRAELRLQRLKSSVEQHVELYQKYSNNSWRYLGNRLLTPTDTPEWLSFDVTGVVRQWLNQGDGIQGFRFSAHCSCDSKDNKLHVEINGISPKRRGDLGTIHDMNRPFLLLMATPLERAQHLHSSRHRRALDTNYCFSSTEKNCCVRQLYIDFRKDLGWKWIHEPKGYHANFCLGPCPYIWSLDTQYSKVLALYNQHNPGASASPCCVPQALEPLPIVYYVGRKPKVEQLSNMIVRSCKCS

binding result: binds
B1: His-CHIP (enzyme, UniProt Q9WUD1 1-304, looked up)
chain: MKGKEEKEGGARLGTGGGGSPDKSPSAQELKEQGNRLFVGRKYPEAAACYGRAITRNPLVAVYYTNRALCYLKMQQPEQALADCRRALELDGQSVKAHFFLGQCQLEMESYDEAIANLQRAYSLAKEQRLNFGDDIPSALRIAKKKRWNSIEERRIHQESELHSYLTRLIAAERERELEECQRNHEGHEDDGHIRAQQACIEAKHDKYMADMDELFSQVDEKRKKRDIPDYLCGKISFELMREPCITPSGITYDRKDIEEHLQRVGHFDPVTRSPLTQEQLIPNLAMKEVIDAFISENGWVEDY
notes: also called PCMV6-CHIP-His

Reference: paper PMC9198048, “Ursodeoxycholic acid reduces antitumor immunosuppression by inducing CHIP-mediated TGF-β degradation” (Nature Communications, 2022)
